Test results from paper PMC4335501.

Target: HAdV-52 short fiber knob (human adenovirus type 52 (HAdV-52))
Assay: SPR; 52SFK captured by its His-tag on a Ni-NTA chip (700 RU); fetuin or asialofetuin type II as analytes, two-fold series 125 to 1 μM; 25°C; HBS-EP+; Biacore T100

B1: sialylated fetuin glycoprotein (natural protein)
chain: IPLDPVAGYKEPACDDPDTEQAALAAVDYINKHLPRGYKHTLNQIDSVKVWPRRPTGEVYDIEIDTLETTCHVLDPTPLANCSVRQQTQHAVEGDCDIHVLKQDGQFSVLFTKCDSSPDSAEDVRKLCPDCPLLAPLNDSRVVHAVEVALATFNAESNGSYLQLVEISRAQFVPLPVSVSVEFAVAATDCIAKEVVDPTKCNLLAEKQYGFCKGSVIQKALGGEDVRVTCTLFQTQPVIPQPQPDGAEAEAPSAVPDAAGPTPSAAGPPVASVVVGPSVVAVPLPLHRAHYDLRHTFSGVASVESSSGEAFHVGKTPIVGQPSIPGGPVRLCPGRIRYFKI
modifications: sialylated glycans
Q: B1 was tested. Which Kd did it give?
A: 37 µM
